T1: human FcγRIIa type H (human, UniProt P12318 36-217)
T1 construct: also called FcgRIIaH; FcγRIIa(H)
T1 sequence: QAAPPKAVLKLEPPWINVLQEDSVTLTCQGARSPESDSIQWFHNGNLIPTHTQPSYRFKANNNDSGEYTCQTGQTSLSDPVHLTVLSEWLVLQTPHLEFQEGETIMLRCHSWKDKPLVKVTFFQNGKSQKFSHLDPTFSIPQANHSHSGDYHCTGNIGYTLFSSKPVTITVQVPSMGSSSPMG

T2: human FcγRIIb (human, UniProt P31994 43-217, limits assumed)
T2 construct: also called FcgRIIb; FcγIIB
T2 sequence: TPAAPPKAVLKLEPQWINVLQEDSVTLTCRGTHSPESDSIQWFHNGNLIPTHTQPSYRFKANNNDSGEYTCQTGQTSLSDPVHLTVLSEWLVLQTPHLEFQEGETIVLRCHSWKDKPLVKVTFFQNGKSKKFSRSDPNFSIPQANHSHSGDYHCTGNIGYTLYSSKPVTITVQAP


What was measured:
Experiment in all cases: SPR (Biacore); binding amount divided by that of control IL6R-BF648/IL6R-L, x100
human FcγRIIa type H = molecular target: T1, human FcγRIIa type H
Method: (§1) According to the following method, relative binding activities were calculated for the results of analyzing interactions with the respective FcγRs.

human FcγRIIIa type V = molecular target: T3, human FcγRIIIa type V (human, UniProt P08637 17-208, limits assumed)
T3 construct: The assay used allotype V158; also called FcgRIIIaV; FcγRIIIa(V)
Method: as §1

human FcγRIa = molecular target: T4, human FcγRIa (human, UniProt P12314 16-292, limits assumed)
T4 construct: also called FcgRIa; CD64
Method: as §1

human FcγRIIb = molecular target: T2, human FcγRIIb
Method: as §1

T3 sequence (P08637 other isoform, or with tags, fused parts or gaps limits assumed): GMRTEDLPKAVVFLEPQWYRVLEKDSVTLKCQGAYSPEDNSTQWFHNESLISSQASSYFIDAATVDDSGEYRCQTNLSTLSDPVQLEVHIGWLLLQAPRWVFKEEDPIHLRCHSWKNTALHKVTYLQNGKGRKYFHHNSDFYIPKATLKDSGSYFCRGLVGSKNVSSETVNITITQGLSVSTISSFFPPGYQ
T4 sequence (P12314 16-292 limits assumed): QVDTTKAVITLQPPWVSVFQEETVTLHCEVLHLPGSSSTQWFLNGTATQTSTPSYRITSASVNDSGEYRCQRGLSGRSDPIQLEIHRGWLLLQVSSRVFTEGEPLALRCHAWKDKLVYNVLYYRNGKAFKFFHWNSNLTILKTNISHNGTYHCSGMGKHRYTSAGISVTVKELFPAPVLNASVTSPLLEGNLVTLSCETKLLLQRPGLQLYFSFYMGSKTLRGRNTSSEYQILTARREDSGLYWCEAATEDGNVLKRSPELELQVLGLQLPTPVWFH

Row | relative binding activity (human FcγRIIa type H) | relative binding activity (human FcγRIIIa type V) | relative binding activity (human FcγRIa) | relative binding activity (human FcγRIIb) | Binder
1 | 123 % of IL6R-BF648/IL6R-L | 92 % of IL6R-BF648/IL6R-L | 101 % of IL6R-BF648/IL6R-L | 168 % of IL6R-BF648/IL6R-L | IL6R-BP206/IL6R-L (antibody, human IgG1, The common L chain is IL6R-L; copies: 2 + 2) heavy: QVQLQESGPGLVKPSETLSLTCAVSGHSISHDHAWSWVRQPPGEGLEWIGFISYSGITNYNPSLQGRVTISRDNSKNTLYLQMNSLRAEDTAVYYCARSLARTTAMDYWGEGTLVTVSSASTKGPSVFPLAPSSKSTSGGTAALGCLVKDYFPEPVTVSWNSGALTSGVHTFPAVLQSSGLYSLSSVVTVPSSSLGTQTYICNVNHKPSNTKVDKKVEPKSCDKTHTCPPCPAPDLLGGDSVFLFPPKPKDTLMISRTPEVTCVVVDVSHEDGEVKFNWYVDGVEVHNAKTKPREEQYNSTYRVVSVLTVLHQDWLNGKEYKCKVSNKALPRPIEKTISKAKGQPREPQVYTLPPSRDELTKNQVSLTCLVKGFYPSDIAVEWESNGQPENNYKTTPPVLDSDGSFFLYSKLTVDKSRWQQGNVFSCSVMHEALHNHYTQESLSLSP light: DIQMTQSPSSLSASVGDRVTITCRASQDISSYLNWYQQKPGKAPKLLIYYTSRLHSGVPSRFSGSGSGTDFTFTISSLQPEDIATYYCQQGNTLPYTFGQGTKVEIK
2 | 103 % of IL6R-BF648/IL6R-L | 97 % of IL6R-BF648/IL6R-L | 74 % of IL6R-BF648/IL6R-L | 124 % of IL6R-BF648/IL6R-L | IL6R-BP207/IL6R-L (antibody, human IgG1, The common L chain is IL6R-L; copies: 2 + 2) heavy: QVQLQESGPGLVKPSETLSLTCAVSGHSISHDHAWSWVRQPPGEGLEWIGFISYSGITNYNPSLQGRVTISRDNSKNTLYLQMNSLRAEDTAVYYCARSLARTTAMDYWGEGTLVTVSSASTKGPSVFPLAPSSKSTSGGTAALGCLVKDYFPEPVTVSWNSGALTSGVHTFPAVLQSSGLYSLSSVVTVPSSSLGTQTYICNVNHKPSNTKVDKKVEPKSCDKTHTCPPCPAPDLLGGDSVFLFPPKPKDTLMISRTPEVTCVVVDVSHEDPEVKFNWYVDGVEVHNAKTKPREEQYNSTYRVVSVLTVLHQDWLNGKEYKCKVSNKALPRPIEKTISKAKGQPREPQVYTLPPSRDELTKNQVSLTCLVKGFYPSDIAVEWESNGQPENNYKTTPPVLDSDGSFFLYSKLTVDKSRWQQGNVFSCSVMHEALHNHYTQESLSLSP light: DIQMTQSPSSLSASVGDRVTITCRASQDISSYLNWYQQKPGKAPKLLIYYTSRLHSGVPSRFSGSGSGTDFTFTISSLQPEDIATYYCQQGNTLPYTFGQGTKVEIK
3 | 255 % of IL6R-BF648/IL6R-L | 88 % of IL6R-BF648/IL6R-L | 35 % of IL6R-BF648/IL6R-L | 185 % of IL6R-BF648/IL6R-L | IL6R-BP203/IL6R-L (antibody, human IgG1, The common L chain is IL6R-L; copies: 2 + 2) heavy: QVQLQESGPGLVKPSETLSLTCAVSGHSISHDHAWSWVRQPPGEGLEWIGFISYSGITNYNPSLQGRVTISRDNSKNTLYLQMNSLRAEDTAVYYCARSLARTTAMDYWGEGTLVTVSSASTKGPSVFPLAPSSKSTSGGTAALGCLVKDYFPEPVTVSWNSGALTSGVHTFPAVLQSSGLYSLSSVVTVPSSSLGTQTYICNVNHKPSNTKVDKKVEPKSCDKTHTCPPCPAPELLGDDSVFLFPPKPKDTLMISRTPEVTCVVVDVSHEDGEVKFNWYVDGVEVHNAKTKPREEQYNSTYRVVSVLTVLHQDWLNGKEYKCKVSNKALPRPIEKTISKAKGQPREPQVYTLPPSRDELTKNQVSLTCLVKGFYPSDIAVEWESNGQPENNYKTTPPVLDSDGSFFLYSKLTVDKSRWQQGNVFSCSVMHEALHNHYTQESLSLSP light: DIQMTQSPSSLSASVGDRVTITCRASQDISSYLNWYQQKPGKAPKLLIYYTSRLHSGVPSRFSGSGSGTDFTFTISSLQPEDIATYYCQQGNTLPYTFGQGTKVEIK
4 | 116 % of IL6R-BF648/IL6R-L | 103 % of IL6R-BF648/IL6R-L | 112 % of IL6R-BF648/IL6R-L | 144 % of IL6R-BF648/IL6R-L | IL6R-BP199/IL6R-L (antibody, copies: 2 + 2) heavy: QVQLQESGPGLVKPSETLSLTCAVSGHSISHDHAWSWVRQPPGEGLEWIGFISYSGITNYNPSLQGRVTISRDNSKNTLYLQMNSLRAEDTAVYYCARSLARTTAMDYWGEGTLVTVSSASTKGPSVFPLAPSSKSTSGGTAALGCLVKDYFPEPVTVSWNSGALTSGVHTFPAVLQSSGLYSLSSVVTVPSSSLGTQTYICNVNHKPSNTKVDKKVEPKSCDKTHTCPPCPAPDLLGGDSVFLFPPKPKDTLMISRTPEVTCVVVDVSHEDPEVKFNWYVDGVEVHNAKTKPREEQYNSTYRVVSVLTVLHQDWLNGKEYKCKVSNDALPRPIEKTISKAKGQPREPQVYTLPPSRDELTKNQVSLTCLVKGFYPSDIAVEWESNGQPENNYKTTPPVLDSDGSFFLYSKLTVDKSRWQQGNVFSCSVMHEALHNHYTQESLSLSP light: DIQMTQSPSSLSASVGDRVTITCRASQDISSYLNWYQQKPGKAPKLLIYYTSRLHSGVPSRFSGSGSGTDFTFTISSLQPEDIATYYCQQGNTLPYTFGQGTKVEIK

The remaining lines, values behind:

Row | Binder | relative binding activity (human FcγRIIa type H) | relative binding activity (human FcγRIIIa type V) | relative binding activity (human FcγRIa) | relative binding activity (human FcγRIIb)
5 | IL6R-BP194/IL6R-L (antibody, human IgG1, The common L chain is IL6R-L; copies: 2 + 2) heavy: QVQLQESGPGLVKPSETLSLTCAVSGHSISHDHAWSWVRQPPGEGLEWIGFISYSGITNYNPSLQGRVTISRDNSKNTLYLQMNSLRAEDTAVYYCARSLARTTAMDYWGEGTLVTVSSASTKGPSVFPLAPSSKSTSGGTAALGCLVKDYFPEPVTVSWNSGALTSGVHTFPAVLQSSGLYSLSSVVTVPSSSLGTQTYICNVNHKPSNTKVDKKVEPKSCDKTHTCPPCPAPDYLGDDSVFLFPPKPKDTLMISRTPEVTCVVVDVSDEDGEVKFNWYVDGVEVHNAKTKPREEQYNSTYRVVSVLTVLHQDWLNGKEYKCKVSNAALPKPIEKTISKAKGQPREPQVYTLPPSRDELTKNQVSLTCLVKGFYPSDIAVEWESNGQPENNYKTTPPVLDSDGSFFLYSKLTVDKSRWQQGNVFSCSVMHEALHNHYTQESLSLSP light: DIQMTQSPSSLSASVGDRVTITCRASQDISSYLNWYQQKPGKAPKLLIYYTSRLHSGVPSRFSGSGSGTDFTFTISSLQPEDIATYYCQQGNTLPYTFGQGTKVEIK | 395 % of IL6R-BF648/IL6R-L | 249 % of IL6R-BF648/IL6R-L | 69 % of IL6R-BF648/IL6R-L | 178 % of IL6R-BF648/IL6R-L
6 | IL6R-BP196/IL6R-L (antibody, human IgG1, The common L chain is IL6R-L; copies: 2 + 2) heavy: QVQLQESGPGLVKPSETLSLTCAVSGHSISHDHAWSWVRQPPGEGLEWIGFISYSGITNYNPSLQGRVTISRDNSKNTLYLQMNSLRAEDTAVYYCARSLARTTAMDYWGEGTLVTVSSASTKGPSVFPLAPSSKSTSGGTAALGCLVKDYFPEPVTVSWNSGALTSGVHTFPAVLQSSGLYSLSSVVTVPSSSLGTQTYICNVNHKPSNTKVDKKVEPKSCDKTHTCPPCPAPEYLGGDSVFLFPPKPKDTLMISRTPEVTCVVVDVSDEDGEVKFNWYVDGVEVHNAKTKPREEQYNSTYRVVSVLTVLHQDWLNGKEYKCKVSNAALPKPIEKTISKAKGQPREPQVYTLPPSRDELTKNQVSLTCLVKGFYPSDIAVEWESNGQPENNYKTTPPVLDSDGSFFLYSKLTVDKSRWQQGNVFSCSVMHEALHNHYTQESLSLSP light: DIQMTQSPSSLSASVGDRVTITCRASQDISSYLNWYQQKPGKAPKLLIYYTSRLHSGVPSRFSGSGSGTDFTFTISSLQPEDIATYYCQQGNTLPYTFGQGTKVEIK | 195 % of IL6R-BF648/IL6R-L | 137 % of IL6R-BF648/IL6R-L | 89 % of IL6R-BF648/IL6R-L | 157 % of IL6R-BF648/IL6R-L
7 | IL6R-BP197/IL6R-L (antibody, copies: 2 + 2) heavy: QVQLQESGPGLVKPSETLSLTCAVSGHSISHDHAWSWVRQPPGEGLEWIGFISYSGITNYNPSLQGRVTISRDNSKNTLYLQMNSLRAEDTAVYYCARSLARTTAMDYWGEGTLVTVSSASTKGPSVFPLAPSSKSTSGGTAALGCLVKDYFPEPVTVSWNSGALTSGVHTFPAVLQSSGLYSLSSVVTVPSSSLGTQTYICNVNHKPSNTKVDKKVEPKSCDKTHTCPPCPAPDYLGDDSVFLFPPKPKDTLMISRTPEVTCVVVDVSDEDGEVKFNWYVDGVEVHNAKTKPREEQDNSTYRVVSVLTVLHQDWLNGKEYKCKVSNDALPKPIEKTISKAKGQPREPQVYTLPPSRDELTKNQVSLTCLVKGFYPSDIAVEWESNGQPENNYKTTPPVLDSDGSFFLYSKLTVDKSRWQQGNVFSCSVMHEALHNHYTQESLSLSP light: DIQMTQSPSSLSASVGDRVTITCRASQDISSYLNWYQQKPGKAPKLLIYYTSRLHSGVPSRFSGSGSGTDFTFTISSLQPEDIATYYCQQGNTLPYTFGQGTKVEIK | 294 % of IL6R-BF648/IL6R-L | 206 % of IL6R-BF648/IL6R-L | 71 % of IL6R-BF648/IL6R-L | 179 % of IL6R-BF648/IL6R-L
8 | IL6R-BP198/IL6R-L (antibody, human IgG1, The common L chain is IL6R-L; copies: 2 + 2) heavy: QVQLQESGPGLVKPSETLSLTCAVSGHSISHDHAWSWVRQPPGEGLEWIGFISYSGITNYNPSLQGRVTISRDNSKNTLYLQMNSLRAEDTAVYYCARSLARTTAMDYWGEGTLVTVSSASTKGPSVFPLAPSSKSTSGGTAALGCLVKDYFPEPVTVSWNSGALTSGVHTFPAVLQSSGLYSLSSVVTVPSSSLGTQTYICNVNHKPSNTKVDKKVEPKSCDKTHTCPPCPAPDYLGGDSVFLFPPKPKDTLMISRTPEVTCVVVDVSDEDGEVKFNWYVDGVEVHNAKTKPREEQYNSTYRVVSVLTVLHQDWLNGKEYKCKVSNAALPKPIEKTISKAKGQPREPQVYTLPPSRDELTKNQVSLTCLVKGFYPSDIAVEWESNGQPENNYKTTPPVLDSDGSFFLYSKLTVDKSRWQQGNVFSCSVMHEALHNHYTQESLSLSP light: DIQMTQSPSSLSASVGDRVTITCRASQDISSYLNWYQQKPGKAPKLLIYYTSRLHSGVPSRFSGSGSGTDFTFTISSLQPEDIATYYCQQGNTLPYTFGQGTKVEIK | 188 % of IL6R-BF648/IL6R-L | 157 % of IL6R-BF648/IL6R-L | 104 % of IL6R-BF648/IL6R-L | 164 % of IL6R-BF648/IL6R-L

From patent US20140105889A1 (published 2014)
